Experiments:
[1] = tested on: Treg cells and CD3+ T cells in dura, TG and DRG; test: Immunohistochemistry of CD3+ T cells and EGFP+ Treg cells in dura, TG, DRG and cervical/medullary dorsal horn; format: in vivo, mouse
Description: Tissue preparation, immunohistochemistry, and image analysis. Mice were euthanized with i.p. injection of barbiturate (200 mg/kg) and were transcardially perfused with warm 0.1 M phosphate buffered saline (pH 7.2) followed by cold 4% formaldehyde in 0.1 M phosphate buffer (pH 7.2) for fixation. Trigeminal ganglia, lumbar L4 DRG, and the tissues containing the cervical/medullary dorsal horn (from obex to C3 cervical spinal cord) were collected and sectioned at […] in the transverse plane, collected on Superfrost Plus glass slides in sequence and stored at […]
The dura was carefully dissected from the skull using forceps and stained as whole mount. T cells were identified by the rat anti-CD3 antibody (clone 17A2, 1:200; eBioscience, San Diego, CA), and Treg cells were identified with the chicken anti-EGFP (1:1000; AVES Lab, Tigard, OR) antibody in tissues from DEREG mice. […] To quantify CD31 T cells and Treg cells on the dura, we took random, nonoverlapping images (10 per mouse) in areas adjacent to the middle meningeal artery (MMA). To quantify T cells and Treg cells in TG, DRG, and cervical/medullary dorsal horn, all cells on individual sections were counted, and the number was multiplied by 4 to obtain the total number of cells per ganglion in each mouse. […] Representative images were adjusted for contrast and brightness using the same parameter within individual experiments. No other manipulations were made to the images. Image analysis was performed with experimenters blinded to the experimental groups.

[2] = tested on: sumatriptan-induced cutaneous hypersensitivity in mice; test: Mouse model of medication overuse headache (repeated sumatriptan); format: in vivo
Description: Mouse model of medication overuse headache. After measuring baseline nociceptive responses, mice received daily i.p. injections of sumatriptan succinate (0.6 mg/kg; Fresenius Kabi, Lake Zurich, IL44). Daily ld-IL2 or saline were administered after mice received 2 sumatriptan injections. Facial and hindpaw mechanical thresholds were measured every 2 days. Note that on the days that the mouse behaviors were tested, sumatriptan and/or IL2 were always injected after completing the behavioral tests.
Responses to mechanical stimuli on the hindpaw. Mice were habituated in individual clear plexiglass boxes (11×11×15 cm) for 1 to 2 hours. A series of calibrated von Frey filaments was used to apply mechanical stimuli to the plantar surface of the hindpaws. The up-down paradigm was used to determine the 50% withdrawal threshold. The thresholds for both hindpaws were averaged to yield a single value for each mouse.
Withdrawal responses to facial mechanical stimuli. The hair on mouse forehead (above and between 2 eyes) was shaved the day before testing. On the test day, the experimenter gently held the mouse on the palm with minimal restraint and applied the calibrated von Frey filament perpendicularly to the shaved skin, causing the filament to bend for 5 seconds. A positive response was determined by the following criteria as previously described: mouse vigorously stroked its face with the forepaw, head withdrawal from the stimulus, or head shaking (Elliott M B et al., Headache 2012; 52:966-84). The up-down paradigm was used to determine the 50% withdrawal threshold.

[3] = 15 days of ld-IL2, male DEREG mice

B1: ld-IL2: Recombinant mouse IL2 (carrier-free; Biolegend), given as daily low-dose i.p. injection (protein, UniProt P04351 21-169, looked up)
Interleukin-2: APTSSSTSSSTAEAQQQQQQQQQQQQHLEQLLMDLQELLSRMENYRNLKLPRMLTFKFYLPKQATELKDLQCLEDELGPLRHVLDLTQSKSFQLEDAENFISNIRVTVVKLKGSDNTFECQFDDESATVVDFLRRWIAFCQSIISTSPQ
frequency of Treg cells among CD3+ cells in the dura ([1]; 15 days of ld-IL2 (5% without)): 20% | increase of the number of EGFP+ Treg cells in the TG ([1]; 15 days of ld-IL2, female DEREG mice): 9 fold | increase in the density of EGFP+ Treg cells in the dura surrounding the MMA [1, 3]: 4 fold | increase in the number of EGFP+ Treg cells in DRG [1, 3]: 4 fold | sumatriptan induced cutaneous hypersensitivity ([2]; after 4 to 6 ld-IL2 injections (day 7-9)): significantly attenuated | sumatriptan induced cutaneous hypersensitivity ([2]; after 8 days of IL2 treatment (day 11)): completely reversed | cutaneous hypersensitivity in response to subsequent sumatriptan injections ([2]; continuous ld-IL2 (day 13)): neither male nor female mice developed cutaneous hypersensitivity
